pIC50: −log10 of the molar value.
Target: human Ob-Rb (human) (UniProt P48357)
Assay: SPA displacement of [125I] leptin, Cos-7 cells transfected with human Ob-Rb

Sequence of UniProt P48357 (P48357 22-1165): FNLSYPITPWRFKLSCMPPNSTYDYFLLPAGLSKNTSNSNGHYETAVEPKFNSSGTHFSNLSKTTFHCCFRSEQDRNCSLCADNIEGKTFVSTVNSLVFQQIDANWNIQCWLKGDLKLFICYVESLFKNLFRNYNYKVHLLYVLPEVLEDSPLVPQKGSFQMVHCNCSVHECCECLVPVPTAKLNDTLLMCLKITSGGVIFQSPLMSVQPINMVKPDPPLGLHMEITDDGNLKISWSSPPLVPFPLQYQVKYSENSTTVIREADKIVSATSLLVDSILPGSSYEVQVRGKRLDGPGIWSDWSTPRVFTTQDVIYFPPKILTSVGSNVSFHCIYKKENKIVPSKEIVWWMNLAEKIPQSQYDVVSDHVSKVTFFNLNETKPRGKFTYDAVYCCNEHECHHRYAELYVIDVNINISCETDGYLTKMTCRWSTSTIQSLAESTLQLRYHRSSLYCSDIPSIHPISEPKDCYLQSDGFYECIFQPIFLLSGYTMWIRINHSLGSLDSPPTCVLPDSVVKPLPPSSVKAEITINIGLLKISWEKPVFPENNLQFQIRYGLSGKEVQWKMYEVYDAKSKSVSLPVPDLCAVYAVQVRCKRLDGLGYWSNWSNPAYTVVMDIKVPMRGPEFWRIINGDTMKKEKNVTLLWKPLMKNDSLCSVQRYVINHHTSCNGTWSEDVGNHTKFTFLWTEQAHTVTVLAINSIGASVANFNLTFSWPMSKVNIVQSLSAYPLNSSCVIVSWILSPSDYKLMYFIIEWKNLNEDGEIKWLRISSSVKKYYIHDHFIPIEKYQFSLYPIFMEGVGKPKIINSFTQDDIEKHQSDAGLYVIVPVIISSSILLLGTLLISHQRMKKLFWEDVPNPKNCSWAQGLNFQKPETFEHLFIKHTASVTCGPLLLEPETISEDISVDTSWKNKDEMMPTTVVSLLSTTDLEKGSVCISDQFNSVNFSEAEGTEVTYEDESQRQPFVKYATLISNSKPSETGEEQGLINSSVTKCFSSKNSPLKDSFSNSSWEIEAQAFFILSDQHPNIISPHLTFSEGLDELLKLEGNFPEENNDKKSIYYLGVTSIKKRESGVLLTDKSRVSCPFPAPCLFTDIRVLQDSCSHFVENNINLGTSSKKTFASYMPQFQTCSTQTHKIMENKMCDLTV

Substance leptin (unlabeled) (ligand) has a pIC50 of 7.82 to 8.00.
